Experimental data reported in article PMC3958349.

Columns and labels:
[1] = target: eGFP-GR (wild-type mouse glucocorticoid receptor with eGFP fused to its N-terminal end) (mouse) (UniProt P06537); experiment: number and brightness (N&B) analysis; living BHK cells transiently transfected with pEGFP-GR or pEGFP-GR^A465T; 10 µM 21OH-6,19OP; nuclear brightness ε
[2] = target: eGFP-GR (wild-type mouse glucocorticoid receptor with eGFP fused to its N-terminal end) (mouse) (UniProt P06537); experiment: number and brightness (N&B) analysis; living BHK cells transiently transfected with pEGFP-GR or its mutants; 100 nM (0.1 µM) Dex or 100 nM Cort for at least 1 h; nuclear brightness ε relative to vehicle; ligand washout also tested (Cort withdrawal reduced the dimers, Dex washout did not)
[3] = target: eGFP-GR (wild-type mouse glucocorticoid receptor with eGFP fused to its N-terminal end) (mouse) (UniProt P06537); experiment: number and brightness (N&B) analysis; living GR-null MEF cell lines stably expressing eGFP-GR or its mutants at endogenous levels; 100 nM Dex or 100 nM Cort; nuclear brightness ε
[4] = target: eGFP-GR^A465T (mouse) (UniProt P06537); experiment: number and brightness (N&B) analysis; living 3617 cells (tetracycline to inhibit the stable GFP-GR) transiently transfected with pEGFP-GR or its mutants; 100 nM Dex or 100 nM Cort for at least 30 min; nuclear brightness ε
[5] = target: eGFP-GR^A465T (mouse) (UniProt P06537); experiment: number and brightness (N&B) analysis; living GR-null MEF cell lines stably expressing eGFP-GR or its mutants at endogenous levels; 100 nM Dex or 100 nM Cort; nuclear brightness ε
[6] = target: mCherry-GR (wild type) (UniProt P06537); experiment: number and brightness (N&B) analysis; living 3617 cells transiently expressing mCherry, mCherryGRwt, GFP and/or GFP-p65; 300 nM Cort and/or 10 ng/ml TNF-α; nuclear brightness ε in the green and red channels

In the case of “eGFP-GR (wild-type mouse glucocorticoid receptor with eGFP fused to its N-terminal end) (from UniProt P06537 1-792)”, the stoichiometry N [1] is reported as 2, the stoichiometry N [2] is reported as 2 and the stoichiometry N [3] is reported as 2.
“eGFP-GR^A465T (from UniProt P06537 1-792) (receptor)” was tested, and the stoichiometry N [4] was 2 and the stoichiometry N [5] was 2.
In the case of “mCherry-GR (wild type) (from UniProt P06537 1-792) (receptor)”, the stoichiometry N [6] is reported as 2.
